According to publication PMC5877976:

Experiments:
Assay in all cases: SPR
[1] = target: chronic gp120 with its wild-type chronic SP (HIV-1 (subtype B))
[2] = target: chronic gp120 with the early-replicating SP (HIV-1 (subtype B))
[3] = target: early-replicating gp120 with its wild-type SP (HIV-1 (subtype B))
[4] = target: early-replicating gp120 with the chronic SP (HIV-1 (subtype B))

“tetrameric recombinant soluble DC-SIGN (from UniProt Q9NNX6 1-404) (receptor)” gave a peak response units (RU) [1] of 184 RU, a peak response units (RU) [2] of 308 RU and a peak response units (RU) [3] of 208 RU. For the same substance, the peak response units (RU) [4] was 131 RU.
